Source: patent US11819552B2, “Antibody-drug conjugates targeting uPARAP” (RIGSHOSPITALET, priority 2016, dated 2023)
Entries after “also recorded” stand apart in the source; their conditions may differ.

Assays:
uPARAP [1] = target: T1, uPARAP (Homo sapiens, UniProt Q9UBG0); test: Antibody reactivity with uPARAP; type: binding; settings: listed as 2h9
T1 sequence (Q9UBG0 31-1479): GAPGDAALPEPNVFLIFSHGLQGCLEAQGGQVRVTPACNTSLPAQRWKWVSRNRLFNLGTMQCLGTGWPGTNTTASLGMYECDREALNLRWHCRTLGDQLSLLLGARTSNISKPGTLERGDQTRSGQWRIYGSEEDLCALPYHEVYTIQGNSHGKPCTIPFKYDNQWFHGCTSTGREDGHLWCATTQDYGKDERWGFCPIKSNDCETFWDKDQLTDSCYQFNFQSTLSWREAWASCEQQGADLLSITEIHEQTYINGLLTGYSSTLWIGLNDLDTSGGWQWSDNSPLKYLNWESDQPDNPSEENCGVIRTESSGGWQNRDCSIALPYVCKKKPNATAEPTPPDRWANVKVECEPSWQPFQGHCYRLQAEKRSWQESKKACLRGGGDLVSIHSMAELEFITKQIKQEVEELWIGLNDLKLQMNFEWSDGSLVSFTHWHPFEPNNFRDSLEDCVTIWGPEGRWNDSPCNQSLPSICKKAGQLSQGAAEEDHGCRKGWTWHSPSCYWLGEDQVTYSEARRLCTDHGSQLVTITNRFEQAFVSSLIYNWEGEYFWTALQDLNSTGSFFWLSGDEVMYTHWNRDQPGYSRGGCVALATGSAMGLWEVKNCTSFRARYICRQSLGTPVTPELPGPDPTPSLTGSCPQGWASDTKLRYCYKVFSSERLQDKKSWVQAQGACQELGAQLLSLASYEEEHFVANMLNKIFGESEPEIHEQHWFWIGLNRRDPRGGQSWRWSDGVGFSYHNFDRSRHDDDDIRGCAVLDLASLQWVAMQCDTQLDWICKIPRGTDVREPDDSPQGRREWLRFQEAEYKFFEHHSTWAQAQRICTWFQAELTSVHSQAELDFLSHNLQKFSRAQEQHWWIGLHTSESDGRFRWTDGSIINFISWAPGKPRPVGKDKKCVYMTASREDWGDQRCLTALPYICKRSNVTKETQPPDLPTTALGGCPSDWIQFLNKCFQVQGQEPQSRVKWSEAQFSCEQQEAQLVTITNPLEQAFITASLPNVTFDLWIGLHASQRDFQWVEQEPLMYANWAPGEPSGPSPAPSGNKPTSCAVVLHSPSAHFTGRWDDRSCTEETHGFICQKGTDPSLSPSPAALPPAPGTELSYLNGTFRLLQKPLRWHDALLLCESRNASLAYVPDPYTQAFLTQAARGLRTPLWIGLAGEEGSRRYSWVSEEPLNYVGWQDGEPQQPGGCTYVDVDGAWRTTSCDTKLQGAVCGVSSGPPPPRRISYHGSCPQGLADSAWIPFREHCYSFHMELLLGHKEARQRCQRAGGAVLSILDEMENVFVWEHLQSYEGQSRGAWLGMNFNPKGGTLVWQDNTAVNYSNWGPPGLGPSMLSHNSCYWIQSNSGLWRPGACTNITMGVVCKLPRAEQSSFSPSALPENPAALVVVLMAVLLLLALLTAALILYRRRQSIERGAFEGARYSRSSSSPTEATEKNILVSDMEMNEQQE

[2] = target: T2, soluble truncated uPARAP protein containing the first 3 N-terminal domains of human uPARAP (Homo sapiens, UniProt Q9UBG0); test: ELISA analysis of uPARAP-binding of mAbs; settings: after reduction step of conjugation, or in ADC form
T2 construct: a soluble truncated uPARAP protein containing the first 3 N-terminal domains of human uPARAP
T2 sequence (Q9UBG0 31-365): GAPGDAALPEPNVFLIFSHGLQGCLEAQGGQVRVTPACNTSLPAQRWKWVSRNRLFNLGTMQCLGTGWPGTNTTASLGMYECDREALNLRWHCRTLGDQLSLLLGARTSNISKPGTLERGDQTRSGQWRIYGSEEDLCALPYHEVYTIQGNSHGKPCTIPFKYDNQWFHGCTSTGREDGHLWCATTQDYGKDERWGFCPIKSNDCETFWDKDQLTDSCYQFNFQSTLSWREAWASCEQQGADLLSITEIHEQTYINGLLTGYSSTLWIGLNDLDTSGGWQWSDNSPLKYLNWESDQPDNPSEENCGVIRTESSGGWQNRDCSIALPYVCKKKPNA
Protocol: Untreated mAbs (2h9 or aTNP), same mAbs subjected to the reduction procedure of conjugation (see above), or ADCs 2h9-vc-MMAE or aTNP-vc-MMAE, were then employed as a primary antibody, followed by a HRP-conjugated rabbit anti-mouse Ig secondary antibody. Finally an o-phenylenediamine dihydrochloride-containing substrate solution was added, and the color reaction was stopped by adding 1M H2SO4. Plates were read at 492 nm using a plate reader.

uPARAP [3] = target: T1, uPARAP; test: Western blotting of MG63 cell lysate; type: binding; design: endogenous in cells; host or cells: MG63 human osteosarcoma cells; settings: detergent lysate of uPARAP-positive MG63 human osteosarcoma cells
Protocol: For Western blotting, a detergent cell lysate prepared from uPARAP-positive MG63 human osteosarcoma cells was analyzed, using identical concentrations of “2h9 cloned” and “2h9 original” as the primary antibodies. […] No reaction is seen in the absence of primary antibody (negative control).

[4] = target: T3, soluble recombinant protein consisting of the three N-terminal domains of uPARAP (CysR, FN-II and CTLD-1) (Homo sapiens, UniProt Q9UBG0); settings: immobilized 2h9, soluble three-domain protein; Jürgensen et al., 2011; cited from earlier work
T3 construct: A soluble recombinant protein consisting of the three n-terminal domains of uPARAP (CysR, FN-II and CTLD-1)
T3 sequence (Q9UBG0 41-360 limits assumed): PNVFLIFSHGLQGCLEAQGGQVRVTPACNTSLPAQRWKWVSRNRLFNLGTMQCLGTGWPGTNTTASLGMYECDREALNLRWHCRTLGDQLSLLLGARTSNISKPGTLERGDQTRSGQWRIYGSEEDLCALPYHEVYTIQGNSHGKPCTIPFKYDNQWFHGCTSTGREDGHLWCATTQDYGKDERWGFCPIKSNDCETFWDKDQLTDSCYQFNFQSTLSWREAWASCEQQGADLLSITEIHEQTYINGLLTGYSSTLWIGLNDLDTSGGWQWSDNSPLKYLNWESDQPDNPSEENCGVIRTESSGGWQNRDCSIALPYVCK

Affinity towards uPARAP following conjugation procedure [2]: retained affinity
Affinity towards uPARAP following conjugation procedure ([2]; listed as 2h9): negligible loss of affinity
B1: mAb 2h9: mouse monoclonal IgG1k anti-uPARAP antibody clone 2.h.9: F12, produced by hybridoma cell culture (protein)
light: DIQMTQSPASQSASLGESVTITCLASQTIGTWLAWYQQKPGKSPQLLIYAATTLTDGVPSRFSGAGSGTKFSLKISSLQAEDFASYFCQEFFSTPFTFGSGTKLELKRADAAPTVSIFPPSSEQLTSGGASVVCFLNNFYPKDINVKWKIDGGERQNGVLNSWTDQDSKDSTYSMSSTLTLTKDEYERHNSYTCEATHKTSTSPIVKSFNRNEC
heavy: QVQLQQPGTELVRPGLSVKLSCKASGYTFTSYWMNWVKQRPGQGLEWIGMIHPSNDEKRINQKFKDKATLTVDKFSSTVYMQVSSPTSEDSAVYYCARGGGDYVGDYALDFWGQGTSVTVSSAKTTPPSVYPLAPGSAAQTNSMVTLGCLVKGYFPEPVTVTWNSGSLSSGVHTFPAVLQSDLYTLSSSVTVPSSTWPSETVTCNVAHPASSTKVDKKIVPRDCGCKPCICTVPEVSSVFIFPPKPKDVLTITLTPKVTCVVVDISKDDPEVQFSWFVDDVEVHTAQTQPREEQFNSTFRSVSELPIMHQDWLNGKEFKCRVNSAAFPAPIEKTISKTKGRPKAPQVYTIPPPKEQMAKDKVSLTCMITDFFPEDITVEWQWNGQPAENYKNTQPIMDTDGSYFIYSKLNVQKSNWEAGNTFTCSVLHEGLHNHHTEKSLSHSPGK
Reactivity with human uPARAP (uPARAP [1]): reactive against both human and murine uPARAP; also recorded: reacts with both human and mouse uPARAP
Reactivity in Western blotting (uPARAP [3]): react specifically with the uPARAP protein
Binding in BIAcore setup [4]: binds to immobilized 2h9
